The target in experiment [1] is T1, HCoV-OC43 spike antigens (bead panel) (HCoV-OC43, UniProt P36334 14-1297).
T1 sequence: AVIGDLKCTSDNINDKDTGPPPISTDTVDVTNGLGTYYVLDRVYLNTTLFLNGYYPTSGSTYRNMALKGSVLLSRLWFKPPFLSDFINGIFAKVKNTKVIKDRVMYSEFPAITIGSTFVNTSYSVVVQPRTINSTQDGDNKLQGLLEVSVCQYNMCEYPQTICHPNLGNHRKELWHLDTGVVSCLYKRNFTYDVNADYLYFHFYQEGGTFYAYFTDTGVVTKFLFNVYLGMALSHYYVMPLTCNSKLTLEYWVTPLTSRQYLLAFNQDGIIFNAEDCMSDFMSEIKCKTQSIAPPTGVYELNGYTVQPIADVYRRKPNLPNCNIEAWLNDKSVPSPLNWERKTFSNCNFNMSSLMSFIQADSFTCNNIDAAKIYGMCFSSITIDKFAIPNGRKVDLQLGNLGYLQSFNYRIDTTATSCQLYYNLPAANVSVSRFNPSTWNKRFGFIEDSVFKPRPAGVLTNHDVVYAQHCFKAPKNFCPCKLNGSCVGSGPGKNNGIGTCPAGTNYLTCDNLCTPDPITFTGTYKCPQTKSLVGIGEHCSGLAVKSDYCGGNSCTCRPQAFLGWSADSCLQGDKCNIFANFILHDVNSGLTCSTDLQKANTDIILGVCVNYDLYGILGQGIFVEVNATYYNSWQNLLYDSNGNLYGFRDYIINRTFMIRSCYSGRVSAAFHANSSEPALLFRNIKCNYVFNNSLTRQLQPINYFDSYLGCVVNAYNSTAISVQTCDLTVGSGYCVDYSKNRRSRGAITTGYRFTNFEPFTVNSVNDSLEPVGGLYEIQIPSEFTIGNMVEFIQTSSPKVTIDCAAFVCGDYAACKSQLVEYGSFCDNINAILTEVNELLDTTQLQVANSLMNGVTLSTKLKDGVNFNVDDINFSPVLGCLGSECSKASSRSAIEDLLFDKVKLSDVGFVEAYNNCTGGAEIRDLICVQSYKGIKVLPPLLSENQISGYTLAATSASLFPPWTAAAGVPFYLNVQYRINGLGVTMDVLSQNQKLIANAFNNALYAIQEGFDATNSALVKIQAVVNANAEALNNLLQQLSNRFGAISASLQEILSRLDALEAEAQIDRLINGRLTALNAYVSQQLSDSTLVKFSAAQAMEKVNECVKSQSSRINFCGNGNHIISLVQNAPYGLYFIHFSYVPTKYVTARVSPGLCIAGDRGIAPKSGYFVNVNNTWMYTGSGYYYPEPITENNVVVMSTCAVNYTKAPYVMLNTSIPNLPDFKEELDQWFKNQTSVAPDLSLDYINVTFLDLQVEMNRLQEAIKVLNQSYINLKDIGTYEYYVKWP
Nature of the experiment: multiplex bead assay.

The target in experiment [2] is T2, HCoV-NL63 spike antigens (bead panel) (HCoV-NL63, UniProt Q6Q1S2 19-1296).
T2 sequence: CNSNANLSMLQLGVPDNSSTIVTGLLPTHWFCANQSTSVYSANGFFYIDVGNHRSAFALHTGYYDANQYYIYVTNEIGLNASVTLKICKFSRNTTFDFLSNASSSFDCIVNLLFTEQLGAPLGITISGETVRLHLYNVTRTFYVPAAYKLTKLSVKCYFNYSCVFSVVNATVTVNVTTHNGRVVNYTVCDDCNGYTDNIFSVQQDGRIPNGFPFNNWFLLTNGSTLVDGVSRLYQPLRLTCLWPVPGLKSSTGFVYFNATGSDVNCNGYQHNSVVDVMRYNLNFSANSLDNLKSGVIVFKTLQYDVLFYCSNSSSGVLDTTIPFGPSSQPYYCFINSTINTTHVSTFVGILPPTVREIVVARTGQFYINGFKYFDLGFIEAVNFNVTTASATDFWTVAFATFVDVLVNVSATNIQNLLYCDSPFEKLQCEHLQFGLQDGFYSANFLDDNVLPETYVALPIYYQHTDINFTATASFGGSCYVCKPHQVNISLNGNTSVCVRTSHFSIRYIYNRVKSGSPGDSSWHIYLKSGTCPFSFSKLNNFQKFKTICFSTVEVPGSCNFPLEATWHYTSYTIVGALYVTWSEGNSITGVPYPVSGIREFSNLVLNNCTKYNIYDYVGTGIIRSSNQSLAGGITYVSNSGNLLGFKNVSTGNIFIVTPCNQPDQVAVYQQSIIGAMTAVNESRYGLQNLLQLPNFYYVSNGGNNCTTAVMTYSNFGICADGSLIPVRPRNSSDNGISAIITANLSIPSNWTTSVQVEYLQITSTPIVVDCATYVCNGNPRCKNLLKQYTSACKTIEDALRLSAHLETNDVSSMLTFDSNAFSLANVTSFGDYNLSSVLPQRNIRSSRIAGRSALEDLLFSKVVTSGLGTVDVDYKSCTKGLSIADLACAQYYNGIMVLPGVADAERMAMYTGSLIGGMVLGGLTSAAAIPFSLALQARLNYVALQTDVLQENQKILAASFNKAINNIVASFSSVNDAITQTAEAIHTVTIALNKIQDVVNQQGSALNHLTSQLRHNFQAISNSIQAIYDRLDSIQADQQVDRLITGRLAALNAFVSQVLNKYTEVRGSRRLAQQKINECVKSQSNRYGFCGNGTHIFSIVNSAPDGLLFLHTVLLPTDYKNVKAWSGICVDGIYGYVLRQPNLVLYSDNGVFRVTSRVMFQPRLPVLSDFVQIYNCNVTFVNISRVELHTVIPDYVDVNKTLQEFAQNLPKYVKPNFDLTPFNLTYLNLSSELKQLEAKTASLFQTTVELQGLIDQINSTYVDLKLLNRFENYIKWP
Nature of the experiment: multiplex bead assay.

Experiment [3] addresses SARS-CoV-2 S on pseudovirions (Wuhan Hu-1 / IL1/2020, last 18 amino acids removed) (SARS-CoV-2, UniProt P0DTC2 14-1273). Nature of the experiment: cell-based or functional assay.

A value given as a limit tells only on which side of the number the result lay.

B1: COV_1151 (antibody, V domains shown)
VH: QVQVQQWGAGLLKPSETLSLTCAVYGGSFNNYYWSWIRQPPGKGLEWIGEINHSGSTNYNPSLMSRVTISVDTSKNQFSLKLTSVTAADTAVYFCARGLPVTTFFSSYYGMDVWGQGTTVTVSS
VL: EIVLTQSPGTLSLSPGERATLSCRASQSVSRTYLAWYQQKPGQAPRLLIYGASSRATGIPDRFSGSGSGTDFTLTISRLEPEDFAVYYCQHYGSSPWTFGQGTKVEIRR
notes: human IgG1
Take B1: the binding result in experiment [1] is “no binding”. The binding result in experiment [2] was “no binding”. Besides, in experiment [3], the “Mean IC50, pSV neutralization” value is not below 25 µg/ml and the “Mean IC80, pSV neutralization” value was not below 25 µg/ml.

B2: COV_2077 (antibody, V domains shown)
VH: QVQLQESGPGLVKPSETLSLTCTVSGGSISSYSWSWIRQPPGKGLEWIGYIYYSGSTNYNPSLKSRVTISVDTSKNQFSLKLSSVTAADTAVYYCARESMGRYSLELRQPESAFDYWGRGTLVTVSS
VL: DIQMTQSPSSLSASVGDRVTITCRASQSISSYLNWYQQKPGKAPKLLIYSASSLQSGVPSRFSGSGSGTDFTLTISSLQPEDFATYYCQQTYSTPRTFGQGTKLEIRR
notes: human IgG1
With B2, the binding result in experiment [1] is on record as “no binding”. Further, the binding result in experiment [2] is “no binding”. For the same molecule, in experiment [3], the “Mean IC50, pSV neutralization” value was not below 25 µg/ml and the “Mean IC80, pSV neutralization” value is not below 25 µg/ml.

B3: COV_1144 (antibody, V domains shown)
VH: EVQLVESGGGLVQPGGSLRLSCAASGFTFRSFWMSWVRQAPGKGLEWVANIKEDASEKHYVDPVKGRFTISRDNAKNSLYLQLNSLRAEDMAVYYCARVGRGYCTNGLCYTAFEYWGQGTLVTVSS
VL: DIQMTQSPSSLSASVGDRVTITCRTSQSISNYLNWYQQKPGKAPKLLIYAASSLQSGVPSRFSGSGSGTDFTLTISSLQPEDFATYYCQQSYSTAWTFGQGTKVEIRR
notes: human IgG1
As for B3, the binding result in experiment [1] and in experiment [2] was “no binding” throughout. Further, the “Mean IC50, pSV neutralization” value in experiment [3] is not below 25 µg/ml. For the same molecule, the “Mean IC80, pSV neutralization” value in experiment [3] was not below 25 µg/ml.

B4: COV_2048 (antibody, V domains shown)
VH: QVQLQESGPGLVKPSETLSLTCTVSGGSISNTSYYWGWIRQPPGKGLEWIGSIYRSGSTYYNPSLKSRVTISIDTSKNQFTLKLSSVTAADTAVYYCARDYYGDYSAKPMEYWGQGTLVTVSS
VL: QSALTQPRSVSGSPGQSVTISCTGTSSDVGGYNYVSWYQQHPGKAPKLLIYDVSKRPSGVPDRFSGSKSGNTASLTISGLQAEDEADYYCCSYAGSYVVFGGGAKLTVLG
notes: human IgG1
Take B4: the binding result in experiment [1] and in experiment [2] was “no binding” in each case. Besides, the “Mean IC50, pSV neutralization” value in experiment [3] was determined as 20.3 µg/ml. In experiment [3], the “Mean IC80, pSV neutralization” value is not below 25 µg/ml.

B5: COV_2032 (antibody, V domains shown)
VH: EVQLVESGGGLVQPGGSLRLSCAASGFTFTTYWMHWVRQAPGKGLVWVSRIKTDGSSTNYADSVKGRFTISRDNAKNMLYLQMNSLRAEDTAVYYCAREGPVSIVYFDYWGQGTLVTVSS
VL: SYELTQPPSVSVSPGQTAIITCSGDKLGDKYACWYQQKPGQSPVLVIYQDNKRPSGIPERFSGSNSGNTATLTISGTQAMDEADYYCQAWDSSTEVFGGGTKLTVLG
notes: human IgG1
In the case of B5, the binding result in experiment [1] and in experiment [2] was “no binding” throughout.

B6: COV_2093 (antibody, V domains shown)
VH: EVQLVESGGGLVQPGGSLRLSCAASGFMFNRFWMSWVRQAPGKGLEWVTNIKQDGSEKNYVDSVKGRFTISRDNAKNSLYLQMNSLRAEDTAVYYCARDGLYYDFRSPSPFYGMDVWGQGTTVTVSS
VL: DIQMTQSPSSLSASVGDRVTITCRASQSISSYLNWYQHKSGKAPKLLIYAASRLQSGVPSRFSGSGSGTDFTLTIVSLQPEDLATYYCQQSYSTPRTFGGGTKVEIKR
notes: human IgG1
With B6, the binding result in experiment [1] is reported as “no binding”. For the same molecule, in experiment [2], the binding result is listed as “no binding”. In experiment [3], the “Mean IC50, pSV neutralization” value is not below 25 µg/ml and the “Mean IC80, pSV neutralization” value was not below 25 µg/ml.

B7: COV_1166 (antibody, V domains shown)
VH: EVQLVESGGGLVQPGGSLRLSCAVSGFTFRSFWMSWVRQTPGKGLEWVANIKEDGSEKYYVDSVKGRFTISRDNAKNSLYLQMNSLRAEDTAVYYCAREGRWELLGFAFDIWGQGTMVTVSS
VL: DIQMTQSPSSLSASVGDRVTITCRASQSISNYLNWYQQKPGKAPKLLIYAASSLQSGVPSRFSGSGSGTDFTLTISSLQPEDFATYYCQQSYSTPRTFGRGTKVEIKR
notes: human IgG1
B7: the binding result in experiment [1] is on record as “no binding”. The binding result in experiment [2] is recorded as “no binding”. Moreover, in experiment [3], the “Mean IC50, pSV neutralization” value is not below 25 µg/ml and the “Mean IC80, pSV neutralization” value is not below 25 µg/ml.

B8: COV_1170 (antibody, V domains shown)
VH: QVQLVESGGGVVQPGRSLRLSCAASGFTFSTYAMHWVRQAPGKGLEWVALISYDGSNKYYADSVKGRFTISRDNSKNTLDLQMNSLRAEDTAVYYCARSLGGYRTGFDYWGQGTLVTVSS
VL: DIQLTQSPSFLSASVGDRVTITCRASQGISSYLAWYQQKPGKAPKLLIYAASTLQSGVPSRFSGSGSGTEFTLTISSLQPEDFATYYCQQLNSYPPFTFGPGTKVDIKR
notes: human IgG1
In the case of B8, in experiment [1], the binding result is reported as “no binding”. The binding result in experiment [2] is reported as “no binding”. For the same molecule, in experiment [3], the “Mean IC50, pSV neutralization” value was determined as 0.2 µg/ml and the “Mean IC80, pSV neutralization” value was not below 25 µg/ml.

B9: COV_2143 (antibody, V domains shown)
VH: EVQLVESGGGVVQPGRSLRLSCAASGFTFNSFAMLWVRQAPGKGLEWVALFSYDGSNKYYADSVKGRFTISRDNSKNTLYLQMNNLRAVDTAVYYCARASPYDINGYYLHRIAFDIWGQGTMVTVSS
VL: QSVLMQPPSVSGAPGQRVTISCTGSSSNIGAGYDVHWYQQLPGTAPKLLMYGNSNRPSGVPDRFSGSKSGTSASLAITGLQAEDEADYYCQSYDSGLSGWVFGGGTKLTVLG
notes: human IgG1
Take B9: the binding result in experiment [1] is given as “no binding”. Also, in experiment [2], the binding result is “no binding”. Besides, in experiment [3], the “Mean IC50, pSV neutralization” value is not below 25 µg/ml and the “Mean IC80, pSV neutralization” value was not below 25 µg/ml.

B10: COV_1172 (antibody, V domains shown)
VH: QVQLQESGPGLVKPSETLSLTCTVSGGSIRSYYWSWIRQPPGKGLEWIGYIYYSGSTNYSPSLKSRVTISVDTSKNQFSLKLNSVTAADTAVYYCARRGLGYCSGDSCSNAFDIWGQGTMVTVSS
VL: DIQMTQSPSSLSASVGDRVTITCRASQSISSYLNWYQQKPGRAPELLIYDASSLQSGVPSGFSGSGSGTDFTLTISSLQPEDFATYYCQQSYSTPFTFGPGTKVDIKR
notes: human IgG1
Turning to B10, the binding result in experiment [1] was “no binding”. The binding result in experiment [2] is reported as “no binding”. In experiment [3], the “Mean IC50, pSV neutralization” value is not below 25 µg/ml and the “Mean IC80, pSV neutralization” value is not below 25 µg/ml.

B11: COV_1025 (antibody, V domains shown)
VH: QVQLVESGGGVVQPGRSLRLSCAASGFTFNTYAMHWVRQAPGKGLEWVAIISYDGGNKYYADSMKGRFTISRDNSKNTLYLQMNSLRAEDTAVYYCARARTGNYYYGMDVWGQGTTVTVSS
VL: not shown
notes: human IgG1
Regarding B11, the binding result in experiment [1] and in experiment [2] was “no binding” in each case.

Values taken from patent publication US20240101645A1 (HENRY M JACKSON FOUNDATION FOR THE ADVANCEMENT OF MILITARY …, published 2024).
